These results are taken from publication PMC6494084.

Like-named read-outs stand apart in the source and are kept apart here.

Common to all, as to assay: X-ray crystallography
Series [1] concerns the target T1, DNA polymerase beta (pol β), wild-type (human, UniProt P06746 1-335).
Series [2] has as its target T1, DNA polymerase beta (pol β), wild-type. The source holds these as a separate data set.
Series [3] shares this target. This is another data set of the same source.

B1: 1-nt gapped DNA, templating C (dsDNA)
DNA 1: CCGACCGCGCATCAGC
DNA 2: GCTGATGCGC
DNA 3: GTCGC
modifications: 5'-phosphate on downstream strand
B1: the binding result in series [1] is given as “binds”.

B2: 1-nt gapped DNA, templating G (dsDNA)
DNA 1: CCGACGGCGCATCAGC
DNA 2: GCTGATGCGC
DNA 3: GTCGC
modifications: 5'-phosphate on downstream strand
B2: the binding result in series [2] is given as “binds”.

B3: 1-nt gapped DNA, templating A (dsDNA)
DNA 1: CCGACAGCGCATCAGC
DNA 2: GCTGATGCGC
DNA 3: GTCGC
modifications: 5'-phosphate on downstream strand
As for B3, the binding result in series [3] is reported as “binds”.
